# In PMC3678129:
# B1: Euphorbia characias latex peroxidase (ELP) (Euphorbia characias) (protein)
# chain: QTKPPIVNGLSWTFYKSSCPKVESIIQKELKKLFKKDVEQAAGLLRLHFHDCFVLGCDGSVLLNGSAGGPSEQSELPNLSLRKQAFKIVNDLRALVHKECGPVVSCSDIVAIAARDSVVLTGGPKYDVPLGRRDGVKFAEVNATFEHLVGPTANVTTILAKLARKGLDTTDAVSLSGGHTIGIGHCTSFTERLYPSQDPTLDKTFANNLKRTCPNVNTENSTFLDLRTPNEFDNRYYVDLMNRQGLFTSDQDLYTDKRTRQIVIDFAVNQTLFYEKFIIGMIKMGQLEVVTGNQGEIRNDCSFRNSDNYLVSVTDEESGSSSELR
# Substrate: CCn1c(=NN=c2sc3cc(S(=O)(=O)O)ccc3n2CC)sc2cc(S(=O)(=O)O)ccc21
# Test: purified protein
# Details: H2O2 25 mM (saturating), no added Ca2+, 100 mM Tris-HCl pH 7.0
protein,measurement,value
B1,Km,0.55 ± 0.02 mM
same,kcat,170 ± 11 s⁻¹
same,kcat/Km,309 mM⁻¹ s⁻¹
